The assay deals with T1, Human ASGR-2 (human, UniProt P07307 1-311).
T1 construct: Expressed on HEK 293 cells; cDNA GenBank NM_080913.3; also called huASGR-2; hASGR-2
T1 sequence: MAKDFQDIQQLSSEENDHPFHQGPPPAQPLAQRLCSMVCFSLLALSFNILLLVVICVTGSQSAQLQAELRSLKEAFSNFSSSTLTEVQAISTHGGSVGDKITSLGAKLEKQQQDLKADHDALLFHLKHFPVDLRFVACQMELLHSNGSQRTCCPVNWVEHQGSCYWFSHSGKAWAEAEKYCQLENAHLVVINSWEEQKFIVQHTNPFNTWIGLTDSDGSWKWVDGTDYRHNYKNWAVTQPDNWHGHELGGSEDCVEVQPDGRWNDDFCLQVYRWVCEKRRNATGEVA
The assay is described as follows: FACS on transfected HEK 293 cells; binding = signal at least 2x irrelevant IgG. Here is the method: Human ASGR-1-specific, ligand competing antibody samples were tested for binding to ASGR-1 from other species (cynomologus monkey ASGR-1, mouse ASGR-1, rat ASGR-1, dog ASGR-1, and pig ASGR-1) as well as to human ASGR-2 in FACS binding assays at normalized antibody concentrations. For cell-based assays, HEK 293 cells expressing the appropriate antigen of interest were mixed with antibody sample or controls, incubated for 1 hour at 4° C., and then washed twice. Cells with bound antibody were then incubated with Alexa Fluor® 647 IgG Fc fragment-specific detection antibody and 7-AAD viability stain for 15 minutes at 4° C., washed once and resuspended in FACS buffer. Samples were analyzed using a BD Accuri™ Flow Cytometer and an Intellicyt HyperCyt Autosampler. As a negative control, supernatants and controls were also screened against HEK 293 cells transfected with empty parental vector. […] For membrane-prep binding assays, ASGR-1 species specific membrane preps were used to coat LumAvidin® microspheres (beads) and tested for binding to selected hybridoma supernatants or controls. Briefly, ASGR-1 species specific membrane preps were incubated with streptavidin-coated LumAvidin® beads for 45 minutes in the dark at room temperature and washed twice. Beads were resuspeneded in FACS buffer containing Stabilguard®. Antigen-bound beads were then incubated with normalized antibody sample for 1 hour in the dark at room temperature, washed twice, incubated with Alexa Fluor® 488 IgG Fc fragment-specific detection antibody for 15 minutes in the dark at room temperature, washed once and finally resuspended in FACS buffer. Samples were analyzed using an Intellicyt iQue™ Screener Platform. FACS buffer supplemented with 1 mM Calcium Chloride was used in all steps. As a negative control, supernatants and controls were also screened against a non-ASGR-1 antigen membrane prep coated on the LumAvidin® beads.

The source of these data is patent publication US20190248902A1 (published 2019).

B1: 56E5 (antibody, V domains shown)
VH: QVQLVQSGAEVKKPGASVKVSCQASGYTFTGYHMHWVRQAPGQGLEWMGWINPNNNATNYAQKFQGRVTMTRDTSISTAYMELRRLRSDDTAVYHCARDGTSSFDYWGQGTLVTVSS
VL: DIQMTQSPSSVSASVGDRVTITCRASQGIRKWLAWYQQKPGKAPKLLIYAASSLQSGVPSRFSGSGSGTDFTLTISSLQPEDFATYYCQQANSFPFTFGPGTKVDIK
notes: Tested as hybridoma supernatant at normalized concentration
Consider B1, for which the binding result is listed as “no binding”.
